Reference: publication doi:10.1101/2025.09.20.677498

Assays:
[1] = target: HAdV-D10 fiber protein (human adenovirus type 10 (HAdV-D10)); experiment: cryo-EM structure
[2] = target: HAdV-D10 penton base (human adenovirus type 10 (HAdV-D10)); experiment: cryo-EM structure

Work on “HAdV-D10 fiber protein (natural protein)” yielded a stoichiometry N [1] of 3.

HAdV-D10 penton base (natural protein) was tested, and the stoichiometry N [2] was 5.
